Test results published in patent CN113621063A (JIANGSU QUANXIN BIOMEDICAL CO LTD; JIANGSU SAIFUSHI …, dated 2021).

T1: 人IFNAR1 (on HEK Blue IFNα/β cells, Daudi cells, human whole blood cells) (human, UniProt P17181 28-557)
T1 sequence (looked up): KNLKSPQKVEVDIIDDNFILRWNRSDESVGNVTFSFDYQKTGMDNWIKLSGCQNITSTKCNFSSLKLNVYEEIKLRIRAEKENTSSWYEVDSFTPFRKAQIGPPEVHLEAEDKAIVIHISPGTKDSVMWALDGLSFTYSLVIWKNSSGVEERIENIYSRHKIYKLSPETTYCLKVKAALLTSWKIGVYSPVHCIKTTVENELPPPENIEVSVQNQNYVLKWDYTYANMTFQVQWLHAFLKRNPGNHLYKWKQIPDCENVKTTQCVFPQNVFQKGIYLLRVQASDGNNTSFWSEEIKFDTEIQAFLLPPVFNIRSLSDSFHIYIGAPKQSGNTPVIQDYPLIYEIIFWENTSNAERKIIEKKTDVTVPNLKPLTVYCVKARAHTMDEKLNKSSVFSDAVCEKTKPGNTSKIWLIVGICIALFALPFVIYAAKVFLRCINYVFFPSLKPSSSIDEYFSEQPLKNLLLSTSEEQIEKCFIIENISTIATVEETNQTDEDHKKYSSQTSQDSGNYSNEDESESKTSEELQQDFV

T2: 人干扰素α受体1(IFNAR1) (human, UniProt P17181 28-436)
T2 construct: Soluble antigen flowed over the captured antibody in the Biacore assay; also called 人IFNAR1; Human Interferon alpha/beta Receptor 1
T2 sequence: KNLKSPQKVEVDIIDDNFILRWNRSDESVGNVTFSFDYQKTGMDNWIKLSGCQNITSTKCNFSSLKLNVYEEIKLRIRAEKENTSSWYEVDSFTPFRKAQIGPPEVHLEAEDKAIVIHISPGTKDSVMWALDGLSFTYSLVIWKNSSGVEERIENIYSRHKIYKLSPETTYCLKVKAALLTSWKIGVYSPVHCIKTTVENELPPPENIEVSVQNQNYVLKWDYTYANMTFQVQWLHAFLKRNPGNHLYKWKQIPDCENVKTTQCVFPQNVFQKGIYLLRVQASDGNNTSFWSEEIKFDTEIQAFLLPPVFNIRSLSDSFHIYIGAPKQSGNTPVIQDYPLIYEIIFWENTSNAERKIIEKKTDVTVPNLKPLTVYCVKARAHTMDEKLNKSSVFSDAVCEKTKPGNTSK


Assays:
[1] = biological target: T1, 人IFNAR1 (on HEK Blue IFNα/β cells, …); assay: cell-based or functional assay
人干扰素α受体1(IFNAR1) = biological target: T2, 人干扰素α受体1(IFNAR1); assay: SPR, Biacore T200, antibody captured on Protein A chip, antigen in flow, 25℃, 1:1 model, mean of three runs

抑制干扰素诱导的Daudi细胞增殖活性的EC50 [1] | 抑制干扰素诱导的HEK Blue IFNα/β细胞中1/2磷酸化活性的IC50 [1] | 抑制干扰素诱导的全血释放CXCL10/IP10活性的IC50 [1] | Kd (人干扰素α受体1(IFNAR1)) | koff (人干扰素α受体1(IFNAR1)) | kon (人干扰素α受体1(IFNAR1)) | Binder
29.9 ng/mL | 5.23 ng/mL | 698 ng/mL | 108 pM | 3.76e-05 s⁻¹ | 347000 M⁻¹ s⁻¹ | QX006N(HZD1203-45-IgG4.1) (antibody, V domains shown, Humanized rabbit clone 1203#; The human IgG1 constant region was replaced by human IgG4 (plasmid pHZDCH-362VH-Hu6-IgG4.1) and the light chain plasmid is pHZDCK (kappa); also called 抗人干扰素α受体1单克隆抗体QX006N; 重组人源化抗IFNAR1单克隆抗体) VH: EVQLVESGGGLVQPGGSLRLSCAASGFSLSSYYMTWVRQAPGKGLEWVSVINVYGGTYYASWAKGRFTISRDNSKNTLYLQMNSLRAEDTAVYYCAREDVAVYMAIDLWGQGTLVTVSS VL: AIQMTQSPSSLSASVGDRVTITCQASQSISNQLSWYQQKPGKAPKLLIYDASSLASGVPSRFSGSRSGTKFTLTISSLQPEDFATYYCLGIYGDGADDGIAFGGGTKVEIK
31.7 ng/mL | 4.43 ng/mL | 562 ng/mL | – | – | – | Anifrolumab (antibody, V domains shown) VH: EVQLVQSGAEVKKPGESLKISCKGSGYIFTNYWIAWVRQMPGKGLESMGIIYPGDSDIRYSPSFQGQVTISADKSITTAYLQWSSLKASDTAMYYCARHDIEGFDYWGRGTLVTVSS VL: EIVLTQSPGTLSLSPGERATLSCRASQSVSSSFFAWYQQKPGQAPRLLIYGASSRATGIPDRLSGSGSGTDFTLTITRLEPEDFAVYYCQQYDSSAITFGQGTRLEIKR
